Like-named read-outs stand apart in the source and are kept apart here. Square brackets hold non-standard residues; d marks the D form. Ends that are not written are not given here. A value given as a limit tells only on which side of the number the result lay.

Here are results for three substances from US9610323B2, “Model systems and treatment regimes for treatment of neurological disease” (NoNO Inc., priority 2009, dated 2017).

How the values of data set [1] were obtained:
For use such a composition is thawed and diluted into a larger volume of normal saline for infusion into a blood vessel. Another composition can be made by lyophilizing the chimeric agent Tat-NR2B9c at a concentration of 1-50 mg/ml in normal saline in the presence or absence of excipients. Such excipients can include those to increase stability or inhibit bacterial, viral or other pathogen growth that could degrade the drug. […] The lyophilized composition can be reconstituted in normal saline.

The conditions of data set [2]: high dose groups, primates.
In data set [3] the test system is permanent pial vessel occlusion (P3VO) stroke. Nature of the data set: Rat model of stroke, permanent pial vessel occlusion of 3 terminal branches of the Middle Cerebral Artery (P3VO). It is filed as in vivo, Sprague Dawley rats. Conditions: 7.6 mg/kg i.v. after vessel occlusion, 5 min infusion. On the procedure: Different infusion times were also compared for efficacy in a rat model of stroke in which adult Sprague Dawley rats (10-12 weeks old) (males˜300 g, females˜250 g) were fasted for 12-18 hours before being subjected to permanent pial vessel occlusion of 3 terminal branches of the Middle Cerebral Artery over the Whisker Barrel Cortex (P3VO). The protocol for analysis of this rat model has been described in WO/2008/008348. Tat-NR2B9c was administered at 7.6 mg/kg i.v. after vessel occlusion in comparison with vehicle. Two periods of infusion were compared, 5 min and 1 hour.

In the next data set the test system is embolic stroke. Put plainly: Primate model of ischemic stroke (twenty 100-micron polystyrene spheres into an intracerebral vessel; MRI brain analysis). The format is in vivo, macaques. Conditions: 2.6 mg/kg one hour after spheres. The procedure:
The following example was performed on ten macaques divided into five test subjects and five controls. Each animal was put through the protocol twice with test animals in the first round serving as controls in the second round and vice versa.
Twenty 100-micron polystyrene spheres were delivered into an intracerebral vessel of each animal to induce embolic stroke. One hour after introducing the sphere, the animals were treated with Tat-NR2B9c (2.6 mg/kg) or vehicle control. The animals were then subject to MRI brain analysis and neurological examination at 4 hr, 24 hr and 14 days after introduction of the spheres.
After 14-28 days, the procedure was repeated with test animals serving as controls and vice versa.

For data set [4] the following is noted: for subjects with histamine levels greater than 10 nmol/L: 3.75 mg/kg dose group; for maximum histamine level / average histamine level: 3.75 mg/kg; for average histamine level: subjects with levels greater than 10 nmol/L.
Description: We carried out a Safety, Tolerability and Pharmacokinetic Study of Tat-NR2B9c in humans. Subjects were either normal, healthy, non-smoking males or post-menopausal or surgically sterile female subjects with a minimum age of 18 years. The subjects were either administered Tat-NR2B9c, Lot #: 124-134-001B, or were given placebo (Phosphate Buffered Saline), Lot #: 124-134-001A, administered as an intravenous infusion (10±1 minutes). Four subjects were dosed in each of Cohorts 1 to 3, and 10 subjects were dosed in each of Cohorts 4 to 8.
During the study period, 11 blood samples were collected for pharmacokinetic analysis from each subject at the following timepoints: 0.00 (pre-dose), 0.08 (5 minutes), 0.17 to 0.25 (10 to 15 minutes, precisely at the end of each individual drug infusion), 0.33 (20 minutes), 0.50, 0.75, 1.00, 2.00, 6.00, 12.00, and 24.00 hours post-dose. In addition, 8 blood samples were collected for histamine analysis from each subject at the following timepoints: 0.00 (pre-dose), and at 0.08 (5 minutes), 0.17 (10 minutes), 0.25, 0.50, 1.00, 2.00, and 24.00 hours post-dose.
The safety assessment was performed on all subjects who received at least 1 dose during the course of the study. The incidents of all adverse events (AEs) were tabulated by treatment and subject number. Absolute values for vital signs, electrocardiogram (ECG) parameters, laboratory parameters and physical examinations were also documented and values outside the normal range were flagged. Shifts from baseline values were tabulated. AEs were documented using investigator and Medical Dictionary for Regulatory Activities (MedDRA) terms.
For data set [5] the following is noted: high dose groups, rats.
The conditions of data set [6]: 50 mg/kg.
Description: Tat-NR2B9c was administered to rats at 50 mg/kg and infusion times of 3 min or 60 min.
The conditions of data set [7]: high dose groups, dogs.
Data set [8] has as its target binding of NMDAR 2B to PSD95 (Homo sapiens, UniProt P78352). Conditions: reported by Bach; cited from earlier work.
The next data set concerns cerebral ischemia. Conditions: reported in WO 2008/014917; cited from earlier work.
Setting [9] is: cortex compared with whole brain.

Chain of binding of NMDAR 2B to PSD95 (P78352 61-249 limits assumed): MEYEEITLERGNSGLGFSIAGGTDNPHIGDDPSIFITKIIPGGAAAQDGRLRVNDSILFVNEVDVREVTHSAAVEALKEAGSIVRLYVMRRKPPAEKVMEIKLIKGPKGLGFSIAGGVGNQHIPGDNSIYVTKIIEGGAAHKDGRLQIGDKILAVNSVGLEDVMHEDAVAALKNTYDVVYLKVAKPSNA

YGRKKRRQRRRKLSSIESDV [Tat-NR2B9c]: in data set [1] (lyophilized from 1-50 mg/ml in normal saline, −20° C. or room temperature), the “stability of lyophilized composition” value is recorded as “stable”. Also, the “stability (degradation or aggregation of the peptide) when stored frozen” value in data set [1] (normal saline, 10-30 mg/ml, stored frozen, two or more years) is listed as “stable”. In addition, the histamine levels entry in data set [2] was “elevated histamine levels were observed”. For the same substance, the “infarction size 24 hr post treatment relative to saline placebo” value in data set [3] is reported as “significantly reduced”. In the data set on embolic stroke (setting [9]), the “reduction of number of infarctions in the cortex” value is listed as “even greater” and the “reduction of volumes of infarctions in the cortex” value is recorded as “even greater”. Also, in the data set with embolic stroke (vs vehicle control), the “number of MRI-visible infarctions in the whole brain” value was “significantly reduced” and the “volume of MRI-visible infarctions in the whole brain” value was “significantly reduced”. In addition, in data set [4] (0.375 mg/kg dose group, 1 timepoint, 2.00 hours post dose), the “subjects with an elevated histamine level” value was found to be 1 subject. The “subjects with histamine levels greater than 10 nmol/L” value in data set [4] (10 minutes after start of administration) is given as 7 of the 8. For the same substance, the “subjects with histamine levels greater than 10 nmol/L” value in [4] (10 minutes after start of administration, listed as NA 1) is reported as “Seven of 8”. In addition, the “subjects with histamine levels greater than 10 nmol/L” value in data set [4] (15 minutes after start of administration) was found to be 3 subjects. Besides, in [4] (10 minutes after start), the maximum histamine level came out at 39.8 nmol/L and the average histamine level is given as 24.3 nmol/L. Further, in data set [4] (15 minutes after start), the maximum histamine level was found to be 20.3 nmol/L and the average histamine level amounted to 15.3 nmol/L. Besides, the “AE dry mouth, incidence” value in data set [4] (9/46 subjects receiving drug) is listed as 19.6%. The “AE flushing, incidence” value in data set [4] (10/46 subjects receiving drug) was determined as 21.7%. For the same substance, the “AE pruritis, incidence” value in data set [4] (12/46 subjects receiving drug) worked out at 26.1%. Moreover, the “AE feeling hot, incidence” value in data set [4] (13/46 subjects receiving drug) is on record as 28.3%. Besides, the “active treatment subjects who experienced at least 1 AE” value in data set [4] (34 of 46 active treatment subjects, all doses) was determined as 73.9%. The “time for abnormal histamine results to return to the normal range” value in data set [4] (after drug administration) is no more than 24.00 h. For the same substance, the “Serious Adverse Events (SAEs)” value in data set [4] (all dose groups) is reported as “No Serious Adverse Events (SAEs) were reported”. Moreover, the “AEs at doses ≧2.60 mg/kg (decreased blood pressure, paraesthesia, hypoaesthesia, erythema, rash, pruritus, dry mouth, nausea, feeling hot, flushing)” value in data set [4] (doses ≧2.60 mg/kg) is “several AEs were frequently reported”. Moreover, the “abnormal levels of histamine” value in data set [4] (treatment groups other than 3.75 mg/kg) was “no treatment group had significant abnormal levels of histamine”. Further, the histamine levels result in data set [5] was “elevated histamine levels were observed”. Further, in [6] (infusion over 3 min), the “decrease in blood pressure” value is listed as “about 50%” and the “period of recovery of blood pressure” value was 90 min. Moreover, in [6] (infusion over an hour (60 min)), the “recovery of blood pressure” value is “recovered over a period of hour” and the “reduction in blood pressure” value is reported as “only a slight reduction”. In addition, the histamine levels entry in [7] is reported as “elevated histamine levels were observed”.
“IESDV (synthetic pentamer peptide from the C-terminus of NMDAR 2B) [pentamer peptide from the C-terminus of NMDAR 2B, reported by Bach]”: in [8], the “inhibiting binding of NMDAR 2B to PSD95” value was “effective”.
Consider “vdseisslk-rrrqrrkkrgyin ([dV][dD][dS][dE][dI][dS][dS][dL][dK][dR][dR][dR][dQ][dR][dR][dK][dK][dR]G[dY][dI][dN]; also: retro-inverso) [retro-inverso analog of Tat-NR2B9c, retro-inverso analog of Tat-NR2B9c described in WO 2008/014917]”, for which the inhibiting cerebral ischemia entry in the data set on cerebral ischemia is on record as “effective”.
